Assay results from US20260226144A1 (NEPHRIS, published 2026).
Where a chain is given by its changes, count along the chain named. One block for each binder: values may come before it.

How the values were obtained:
native murine NBL1 [1] = target: T1, native murine NBL1 (murine, UniProt Q61477 17-178); test: immunotarget assay on permeabilized murine splenocytes, FACS
T1 construct: Endogenous protein, not recombinant; also called murine plasma NBL1; murine splenocyte NBL1
T1 sequence (looked up): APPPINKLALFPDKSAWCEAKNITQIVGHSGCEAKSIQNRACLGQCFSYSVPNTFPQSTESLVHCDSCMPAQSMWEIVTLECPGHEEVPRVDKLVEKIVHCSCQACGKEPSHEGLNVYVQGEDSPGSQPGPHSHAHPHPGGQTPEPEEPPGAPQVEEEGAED

mouse NBL1 = target: T2, mouse NBL1 (mouse, UniProt Q61477 17-178, limits assumed); test: ELISA, IgG1 format
T2 sequence (looked up): T1 sequence (looked up)

native human NBL1 = target: T3, native human NBL1 (human, UniProt P41271 17-181, limits assumed); test: immunotargeted assay on permeabilized human PBMCs, FACS
T3 construct: Endogenous protein in permeabilized PBMCs of healthy volunteers; also called native human NBL1 found in human PBMCs
T3 sequence (looked up): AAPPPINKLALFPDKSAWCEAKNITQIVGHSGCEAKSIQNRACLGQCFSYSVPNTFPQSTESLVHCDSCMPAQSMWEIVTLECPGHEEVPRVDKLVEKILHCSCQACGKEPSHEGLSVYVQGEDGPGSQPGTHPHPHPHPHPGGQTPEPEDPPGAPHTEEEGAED
Excerpt: PBMCs were isolated from blood samples of healthy volunteers.

native murine NBL1 [2] = target: T1, native murine NBL1; test: sandwich ELISA on native murine plasma NBL1
Description: Binding of the mAbs to native murine plasma NBL1 was performed using a sandwich ELISA, as illustrated in FIG. 11A.

binding result (native murine NBL1 [1]): binds
binding result (mouse NBL1): binds
binding result (native human NBL1): binds
B1: Antibody YU1018-E04 (antibody, human IgG1, V domains shown)
VH: QVQLVQSGAEVKKPGESLKISCKGSGYSFTSYWIGWVRQMPGKGLEWMGIIYPGDSDTRYSPSFQGQVTISADKSISTAYLQWSSLKASDTAMYYCARAIVGATSGYWFDPWGQGTLVTVSS
VL: not shown

binding result (mouse NBL1): binds
B2: Antibody YU1018-C11 (antibody, V domains shown)
VH: QVQLVQSGGGLVQPGGSLRLSCAASGFTFSSYAMSWVRQAPGKGLEWVSAISGSGGSTYYADSVKGRFTISRDNSKNTLYLQMNSLRAEDTAVYYCARGGFWGSYRYWSAAFDIWGQGTMVTVSS
VL: not shown

binding result (mouse NBL1): binds
B3: Antibody YU1018-E01 (antibody, human IgG1, V domains shown)
VH: QVQLVQSGAEVKKPGASVKVSCKASGYTFTSYGISWVRQAPGRGLEWMGWISAYNGNTNYAQKLQGRVTMTTDTSTSTAYMELRSLRSDDTAVYYCARGPRDGYNDYWGQGTLVTVSS
VL: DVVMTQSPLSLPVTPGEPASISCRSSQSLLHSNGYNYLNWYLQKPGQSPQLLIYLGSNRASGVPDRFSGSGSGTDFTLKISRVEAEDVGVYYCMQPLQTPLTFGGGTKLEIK

binding result (mouse NBL1): binds
B4: Antibody YU1018-D12 (antibody, V domains shown)
VH: EVQLVQSGAEVKKPGASVKVSCKASGYTFTSYGISWVRQAPGQGLEWMGWISAYNGNTNYAQKLQGRVTMTTDTSTSTAYMELRSLRSDDTAVYYCARDVGYSYGIFDYWGQGTLVTVSS
VL: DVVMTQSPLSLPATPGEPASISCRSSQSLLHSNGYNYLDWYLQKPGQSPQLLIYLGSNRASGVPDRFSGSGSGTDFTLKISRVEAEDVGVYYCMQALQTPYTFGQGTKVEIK

binding result (native murine NBL1 [1]): binds
binding result (mouse NBL1): binds
binding result (native human NBL1): binds
B5: Antibody YU1019-B06 (antibody, human IgG1, V domains shown)
VH: EVQLLESGGGVVQPGRSLRLSCAASGFTFSSYAMHWVRQAPGKGLEWVAVISYDGSNKYYADSVKGRFTISRDNSKNTLYLQMNSLRAEDTAVYYCASPVLRYFDWLPNYWGQGTLVTVSS
VL: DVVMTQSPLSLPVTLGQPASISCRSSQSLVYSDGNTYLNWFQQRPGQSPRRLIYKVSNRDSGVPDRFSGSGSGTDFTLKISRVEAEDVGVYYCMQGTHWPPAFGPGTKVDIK

binding result (mouse NBL1): binds
B6: Antibody YU1018-E07 (antibody, V domains shown)
VH: B5 VH with L116T
VL: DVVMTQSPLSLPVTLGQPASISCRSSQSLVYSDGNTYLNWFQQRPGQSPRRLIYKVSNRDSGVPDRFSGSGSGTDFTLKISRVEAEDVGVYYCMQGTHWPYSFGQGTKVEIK

binding result (mouse NBL1): binds
binding result (native human NBL1): binds
binding result (native murine NBL1 [2]): binds
B7: Antibody YU1019-A12 (antibody, human IgG1, V domains shown)
VH: EVQLLESGPGLVKPSQTLSLTCTVSGGSISSGDYYWSWIRQPPGKGLEWIGYIYYSGSTYYNPSLKSRVTISVDTSKNQFSLKLSSVTAADTAVYYCARGRRLLLFHWGQGTTVTVSS
VL: QSVLTQPPSVSAAPGQKVTISCSGSGSSIGNNYVSWYQQVPGTPPKLLIYDNNKRASGIPDRFSGSKSGTSATLGITGLQTGDEADYYCGTWDNSLSAVVFGGGTKLTVL

binding result (mouse NBL1): binds
B8: Antibody YU1018-D06 (antibody, human IgG1, V domains shown)
VH: QVQLVESGPGLVKPSQTLSLTCTVSGGSISSGGYYWSWIRQHPGKGLEWIGYIYYSGSTYYNPSLKSRVTISVDTSKNQFSLKLSSVTAADTAVYYCARSGAAGIPWFDPWGQGTLVTVSS
VL: B7 VL with G26S, S28N, V40L, P44A, D51E, K54E, A56P, F63L, G75A, N94S

binding result (mouse NBL1): binds
B9: Antibody YU1018-G01 (antibody, human IgG1, V domains shown)
VH: QVQLVQSGAEVKKPGASVKVSCKASGYTFTSYAMHWVRQAPGQRLEWMGWINAGNGNTKYSQKFQGRVTITRDTSASTAYMELSSLRSEDTAVYYCARGRELLTFDYWGQGTLVTVSS
VL: not shown

binding result (mouse NBL1): binds
B10: Antibody YU1018-D08 (antibody, human IgG1, V domains shown)
VH: QVQLVQSGAEVKKPGSSVKVSCKASGGTFSSYAISWVRQAPGQGLEWMGGIIPIFGTANYAQKFQGRVTITADKSTSTAYMELSSLRSEDTAVYYCARDRYYDSSGYYLMDPWGQGTLVTVSS
VL: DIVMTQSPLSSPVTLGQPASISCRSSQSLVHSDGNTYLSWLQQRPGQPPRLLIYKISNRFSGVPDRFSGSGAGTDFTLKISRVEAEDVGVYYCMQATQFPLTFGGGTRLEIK
